How the values were obtained:
[1] = target: γB2ΔICD-EC5-VenusΔN3C9-P3 (mouse) (UniProt Q91XX7); assay: FRET or BRET; acceptor photobleaching at cell adhesion sites of co-cultured HEK293T cells individually expressing donor (mTQ2) and acceptor (Venus) constructs; trans interaction across cells
[2] = target: γB2ΔICD-EC5-Venus (mouse) (UniProt Q91XX7); assay: as above

FRET efficiency [1]	FRET efficiency [2]	Substance
27.4%		γB2ΔICD-EC1-G4S-mTQ2ΔC6 (from UniProt Q91XX7 1-738) (receptor)
	14.1%	γB2ΔICD-EC1-mTQ2 (from UniProt Q91XX7 1-738) (receptor)
